Entries after “also recorded” stand apart in the source; their conditions may differ.
Columns and labels:
mouse bone marrow cells = assay: Inhibition of induction of mesenchymal stem cells (MSC) by FSTL1 in mouse bone marrow cells (Examples 4, 6, 8, 12); assay type: cell-based; conditions: for inhibitory activity against the expansion of ALCAM-positive cells and PDGFRA-positive cells by FSTL1: Example 4: 50 ng/mL FSTL1, 10 μg/mL antibody, vs control anti-DNP antibody
Procedure: It is known that when bone marrow cells are stimulated with FSTL1, mesenchymal stem cells (MSCs) having pluripotency or self-proliferative capacity grow (Cancer Research 73: 6185, 2013). Thus, 2×10^7 cells/well of bone marrow cells collected from the thigh bone of a C57BL/6 mouse were suspended in 3 mL/well of RPMI1640 (GIBCO/Thermo Fisher Scientific Inc., Cat. No. C11875500BT) medium containing 2% fetal bovine serum, supplemented with 50 ng/mL (final concentration) of FSTL1 (R&D Systems, Inc. Cat#1694-FN-050) and 10 μg/mL of the anti-FSTL1 antibody (#5-2, […], #5-8, #5-10, #5-43, #6-55, or #7-34) or its isotype mouse IgG (anti-DNP antibody) as a control antibody “Control”, and cultured under stimulation (6-well plate). 11 days thereafter, the number of cells was counted while the cells were stained with a PE-labeled anti-ALCAM antibody (eBioscience, Cat. No. 12-1661-82) and a PE-labeled anti-PDGFRA antibody (eBioscience, Cat#12-1401-81) in order to examine the expression of MSC markers, and the contents of ALCAM-positive cells and PDGFR-positive cells were analyzed by flow cytometry using FACScan (Becton, Dickinson and Company, Code. BECTON-DICKINSON-FACSCAN) to calculate the number of each positive cell per culture.
(§1) Mouse bone marrow cells prepared in the same way as in Example 4 were supplemented with 50 ng/mL (final concentration) of FSTL1 and 10 μg/mL of the anti-FSTL1 antibody (#5-2, #5-3, #5-8, #5-10, #5-43, #6-55, or #7-34) or a control antibody anti-DNP antibody and cultured under stimulation. 11 days thereafter, the number of cells was counted while the cells were stained with a PE-Cy5-labeled anti-CD45 antibody (BD Pharmingen/Becton, Dickinson and Company, Cat. No. 555484), and the content of CD45− negative cells reported to generally contain MSCs at a high rate was analyzed by flow cytometry using FACScan to calculate the percentage and number of MSCs per culture (FIG. 99A).
Mouse bone marrow cells prepared in the same way as in Example 4 were supplemented with 20 ng/mL (final concentration) of FSTL1 and 10 μg/mL of the anti-FSTL1 antibody (#5-2, #5-3, #5-8, #5-10, #5-43, #6-55, #8-1, #8-4, #8-7, and #8-8) or a control antibody anti-DNP antibody and cultured under stimulation. 8 days thereafter, the number of cells was counted while the cells were stained with a PE-Cy5-labeled anti-CD45 antibody, and the content of CD45− negative cells was analyzed by flow cytometry using FACScan to calculate the percentage and number of MSCs per culture (FIG. 100A).
Mouse bone marrow cells prepared in the same way as in Example 4 were supplemented with 20 ng/mL (final concentration) of FSTL1 and 10 μg/mL of the anti-FSTL1 antibody (#5-2, #5-8, #6-55, […], #8-1, #8-4, #8-7, or #8-8) or a control antibody anti-DNP antibody and cultured under stimulation. 8 days thereafter, the number of cells was counted while the cells were stained with a PE-Cy5-labeled anti-CD45 antibody, and the content of CD45− negative cells was analyzed by flow cytometry using FACScan to calculate the percentage and number of MSCs per culture (FIG. 101).

FSTL1 = biological target: T1, FSTL1 (Homo sapiens, UniProt Q12841); assay: Inhibition of MSC induction by FSTL1 in mouse bone marrow cells, CD45-negative cells (Examples 6, 8, 12); assay type: cell-based; design: purchased R&D Systems, Inc. 1694-FN-050; conditions: antibody 10 μg/mL
T1 sequence (Q12841 21-308): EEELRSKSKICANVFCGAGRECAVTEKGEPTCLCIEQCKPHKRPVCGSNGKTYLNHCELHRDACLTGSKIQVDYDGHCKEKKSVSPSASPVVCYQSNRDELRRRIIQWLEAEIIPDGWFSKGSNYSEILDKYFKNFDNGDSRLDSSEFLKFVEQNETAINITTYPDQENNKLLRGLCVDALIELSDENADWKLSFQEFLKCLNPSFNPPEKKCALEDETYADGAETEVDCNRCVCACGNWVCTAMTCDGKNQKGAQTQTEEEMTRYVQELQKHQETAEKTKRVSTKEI
Procedure: as §1, with “45-43,” for “#5-43,”, “67A).” for “99A).”
Mouse bone marrow cells prepared in the same way as in Example 4 were supplemented with 20 ng/mL (final concentration) of FSTL1 and 10 μg/mL of the anti-FSTL1 antibody (#5-2, #5-3, #5-8, #5-10, #5-43, #6-55, #8-1, #8-4, #8-7, and #8-8) or a control antibody anti-DNP antibody and cultured under stimulation. 8 days thereafter, the number of cells was counted while the cells were stained with a PE-Cy5-labeled anti-CD45 antibody, and the content of CD45− negative cells was analyzed by flow cytometry using FACScan to calculate the percentage and number of MSCs per culture (FIG. 68A).
Mouse bone marrow cells prepared in the same way as in Example 4 were supplemented with 20 ng/mL (final concentration) of FSTL1 and 10 μg/mL of the anti-FSTL1 antibody (#5-2, #5-8, #6-55, #7-34, #8-1, #8-4, #8-7, or #8-8) or a control antibody anti-DNP antibody and cultured under stimulation. 8 days thereafter, the number of cells was counted while the cells were stained with a PE-Cy5-labeled anti-CD45 antibody, and the content of CD45− negative cells was analyzed by flow cytometry using FACScan to calculate the percentage and number of MSCs per culture (FIG. 69).

[1] = Example 6: 50 ng/mL FSTL1, 10 μg/mL antibody, 11 days, FIG. 99A
[2] = Example 8: 20 ng/mL FSTL1, 10 μg/mL antibody, 8 days, FIG. 100A
[3] = Example 6, FSTL1 50 ng/mL, 11 days
[4] = Example 8, FSTL1 20 ng/mL, 8 days
[5] = Example 12: 20 ng/mL FSTL1, 10 μg/mL antibody, 8 days, FIG. 101
[6] = Example 12, FSTL1 20 ng/mL, 8 days

B1: #5-43: chicken-mouse chimeric anti-FSTL1 antibody clone; variable regions SEQ ID NO: 779 (light), 781 (heavy) (antibody, V domains shown)
VH: AVTLDESGGGLQTPGGGLSLVCKGSGFTFSSFNMFWVRQAPGKGLEWVAGIGKDGGTGYGAAVDGRATISKDSGQSTLRLQLNNLRAEDTGTYYCAKAAGGCSYDWCGAYTGDIDTWGHGTEVIVSS
VL: ASTQPSSVSANPGEAVKITCSGGSGSYYGWYQQKSPGSAPVTVIYNNNQRPSDIPSRFSGSKSGSTATLTITGVQAEDEAVYFCGGYDSSTGHGGIFGAGTTLTVL
modifications: mouse constant regions
- inhibitory activity against the expansion of ALCAM-positive cells and PDGFRA-positive cells by FSTL1 (mouse bone marrow cells; 11 days): slightly strong tendency of inhibitory activity
- inhibitory activity against the expansion of CD45-negative cells by FSTL1 (mouse bone marrow cells; [1]): higher inhibitory activity and substantially completely inhibited the action of FSTL1
- inhibitory activity against the expansion of CD45-negative cells by FSTL1 (mouse bone marrow cells; [2]): exhibited inhibitory activity
- inhibitory activity against the expansion of CD45-negative cells by FSTL1 (FSTL1; [3]): higher inhibitory activity and substantially completely inhibited the action of FSTL1
- inhibitory activity against the expansion of CD45-negative cells by FSTL1 (FSTL1; [4]): Inhibitory activity was confirmed; also recorded: exhibited inhibitory activity

B2: #5-3: chicken-mouse chimeric anti-FSTL1 antibody clone; variable regions SEQ ID NO: 767 (light), 769 (heavy) (antibody, V domains shown)
VH: AVTLDESGGGLQTPGGALSLVCKGSGFSFSSFNMFWVRQAPGKGLEWVAGIGKDGVPKYGAAVDGRATISKDNGQSTMRLQLNNLRAEDTGTYFCAKAAGGCSYDWCGIYAGDIDTWGHGTEVIVSS
VL: ASTQPSSVSANPGETVKITCSGGSGYYYGWYQQKSPGSVPVTVIYNNNNRPSDIPSRFSGSKSGSTGTLTITGVRAEDEAVYYCGGYDNSGTGIFGAGTTLTVL
modifications: mouse constant regions
- inhibitory activity against the expansion of CD45-negative cells by FSTL1 (mouse bone marrow cells; [1]): higher inhibitory activity and substantially completely inhibited the action of FSTL1
- inhibitory activity against the expansion of CD45-negative cells by FSTL1 (FSTL1; [3]): higher inhibitory activity and substantially completely inhibited the action of FSTL1

B3: #6-55: chicken-mouse chimeric anti-FSTL1 antibody clone; variable regions SEQ ID NO: 783 (light), 785 (heavy) (antibody, V domains shown)
VH: AVTLDESGGGLQTPGGALSLVCKGSGFTFTSVTMQWVRQAPGKGLEWVASVCSGSSTYYAPAVKGRATISRDNGQSTVRLQLSNLRPEDTGTYYCAKIAGRARWSCTSAAYNIDAWGHGTEVIVSS
VL: ASTQPSSVSAIPGETVKITCSGGGNNYGWYQQRSPGSAPVTVIYYNDNRPSNIPSRFSGSTSGSTSTLTITGVQADDEAIYYCGSWDSNTDSGIFGAGTTLTVL
modifications: mouse constant regions
- inhibitory activity against the expansion of ALCAM-positive cells and PDGFRA-positive cells by FSTL1 (mouse bone marrow cells; 11 days): slightly strong tendency of inhibitory activity
- inhibitory activity against the expansion of CD45-negative cells by FSTL1 (mouse bone marrow cells; [2]): exhibited inhibitory activity
- inhibitory activity against the expansion of CD45-negative cells by FSTL1 (mouse bone marrow cells; [5]): higher inhibitory activity was confirmed in the order of #7-34, #5-2, #6-55, and #8-7
- inhibitory activity against the expansion of CD45-negative cells by FSTL1 (FSTL1; [4]): Inhibitory activity was confirmed; also recorded: exhibited inhibitory activity
- inhibitory activity against the expansion of CD45-negative cells by FSTL1 (FSTL1; [6]): higher inhibitory activity was confirmed in the order of #7-34, #5-2, #6-55, and #8-7

B4: #7-34: chicken-mouse chimeric anti-FSTL1 antibody clone; variable regions SEQ ID NO: 787 (light), 789 (heavy) (antibody, V domains shown)
VH: AVTLDESGGGLQTPGGGLSLVCKASGFTFSSVTMQWVRQAPGKGLEWVASICSGSSTYYGPAVKGRATISRDNGQNTVRLQLNNLRAEDTATYYCAKIVGRGRWSCTSAAYNIDAWGHGTEVIVSS
VL: ASTQPSSVSANPGETVKITCSGGGNNYGWYQQKSPGSAPVTVIYYNNNRPSNIPSRFSGSTSGSTSTLTITGVQAEDEAVYYCGSYEGSTDSGIFGAGTTLTVL
modifications: mouse constant regions
- inhibitory activity against the expansion of ALCAM-positive cells and PDGFRA-positive cells by FSTL1 (mouse bone marrow cells; 11 days): slightly strong tendency of inhibitory activity
- inhibitory activity against the expansion of CD45-negative cells by FSTL1 (mouse bone marrow cells; [1]): higher inhibitory activity and substantially completely inhibited the action of FSTL1
- inhibitory activity against the expansion of CD45-negative cells by FSTL1 (mouse bone marrow cells; [5]): higher inhibitory activity was confirmed in the order of #7-34, #5-2, #6-55, and #8-7
- inhibitory activity against the expansion of CD45-negative cells by FSTL1 (FSTL1; [3]): higher inhibitory activity and substantially completely inhibited the action of FSTL1
- inhibitory activity against the expansion of CD45-negative cells by FSTL1 (FSTL1; [6]): stronger inhibitory activity was confirmed in the order of clone #7-34, #5-2, 46-55, and #8-7; also recorded: higher inhibitory activity was confirmed in the order of #7-34, #5-2, #6-55, and #8-7; also recorded: stronger inhibitory activity was confirmed in the order of clone #7-34, #5-2, 96-55, and #8-7

Reference: patent US20180021429A1, “ANTICANCER AGENTS OR ANTIMETASTATIC AGENTS USING FSTL1 AND COMBINATION DRUG THEREOF” (PHARMA FOODS INTERNATIONAL CO., LTD., priority 2015, published 2018)
